Key:
[1] = molecular target: Sec61 complex of C5-PK-RM (chymotrypsin 5 μg/ml) (canine (endogenous in canine pancreas microsomes)) (UniProt P38377); test: radioligand binding
[2] = molecular target: Sec61 complex of T3-PK-RM (trypsin 3 μg/ml) (canine (endogenous in canine pancreas microsomes)) (UniProt P38377); test: radioligand binding
[3] = molecular target: Sec61 complex of C1-PK-RM (chymotrypsin 1 μg/ml) (canine (endogenous in canine pancreas microsomes)) (UniProt P38377); test: radioligand binding
[4] = molecular target: Sec61 complex of C30-PK-RM (chymotrypsin 30 μg/ml) (canine (endogenous in canine pancreas microsomes)) (UniProt P38377); test: radioligand binding
[5] = molecular target: Sec61 complex of Th50-PK-RM (thermolysin 50 μg/ml, on ice) (canine (endogenous in canine pancreas microsomes)) (UniProt P38377); test: radioligand binding
[6] = molecular target: Sec61 complex of C30-PK-RM (chymotrypsin 30 μg/ml) (canine (endogenous in canine pancreas microsomes)) (UniProt P38377); test: SEC
[7] = molecular target: Sec61 complex of C5-PK-RM (chymotrypsin 5 μg/ml) (canine (endogenous in canine pancreas microsomes)) (UniProt P38377); test: SEC
[8] = molecular target: Sec61 complex of T10-PK-RM (trypsin 10 μg/ml) (canine (endogenous in canine pancreas microsomes)) (UniProt P38377); test: SEC

canine ribosomes (nontranslating 80S ribosomes) (complex)
fold lower affinity than the sites of undigested PK-RM [1]: < 2 fold
fold reduction of ribosome binding against undigested PK-RM [1]: 3 fold
percent of the high affinity ribosome binding sites of intact PK-RM [2]: 5%
fold lower affinity than the sites of undigested PK-RM [3]: < 2 fold
fold defect in ribosome binding against undigested PK-RM [4]: > 10 fold
fold lower affinity than the sites of undigested PK-RM [4]: < 2 fold
fold fewer ribosome binding sites than Th2-PK-RM [5]: 3 fold

ribosome-nascent chain complex bearing ffLuc77
fold reduction of RNC binding relative to intact microsomes [6]: 3.5 fold

ribosome-nascent chain complex bearing pPL86 (from UniProt P01239 1-86)
fold decrease in RNC binding against undigested PK-RM [7]: 2 fold
fold less RNCs bound than undigested PK-RM [8]: 5 fold
fold less RNCs bound than undigested PK-RM [6]: 2.7 fold
percent of the bound RNCs insensitive to high salt extraction [6]: 80%
